The numbers were not newly measured in article PMC5432642, which cites them from elsewhere.

A word on the Kd: it is the equilibrium constant for the complex coming apart.

The series concerns the target C3b C3b (Homo sapiens) (UniProt P01024).

Sequence of FH19–20 FH19-20 (P08603 1107-1231): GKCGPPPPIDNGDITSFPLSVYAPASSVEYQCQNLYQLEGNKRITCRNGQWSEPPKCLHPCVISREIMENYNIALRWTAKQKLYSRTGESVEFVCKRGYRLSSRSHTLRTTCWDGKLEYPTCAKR
Sequence of C3b C3b (Homo sapiens) (P01024 566-670): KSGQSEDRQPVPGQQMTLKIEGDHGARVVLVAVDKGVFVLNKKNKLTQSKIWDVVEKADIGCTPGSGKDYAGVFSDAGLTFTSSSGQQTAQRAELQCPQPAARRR

On to FH19–20 FH19-20 (from UniProt P08603), for which the Kd was 5 µM.
